Source: US11198713B2, “Agents modulating beta-catenin functions and methods thereof” (FOG PHARMACEUTICALS, INC., priority 2017, dated 2021)
Numbered stars: 1 amine (or outer) side, 2 acyl side, 3 side chain; on linkers, the order of the positions; unused ones are H or OH. Bridge positions count the residues as written; N and C are the ends. Square brackets hold non-standard residues; d marks the D form. Primed or numbered codes have the meaning given here. MB(10) = Monomer B = PyrS, pyrrolidine stapling residue with allyl carbamate, (S)-3-amino-1-(allyloxycarbonyl)pyrrolidine-3-carboxylic acid, C=CCOC(=O)N1CC[C@@](N[*:1])(C(=O)[*:2])C1; MB(8) = Monomer B (PyrS), pyrrolidine stapling residue bearing N-allyl carbamate (Alloc), forms carbamate staple with R8 by ring-closing olefin metathesis, i to i+7; MB(9) = Monomer B (PyrS), pyrrolidine stapling residue with N-allyloxycarbonyl (Alloc), forms a carbamate staple with R8 by olefin metathesis; 2Pal = N[C@@H](Cc1ccccn1)C(=O)O; R8 = C=CCCCCCC[C@@](C)(N)C(=O)O

target: T1, full-length beta-catenin (Axin site) (Homo sapiens, UniProt P35222); experiment: Competition fluorescence polarization assay (Axin site probe); format: binding; conditions: competition fluorescence polarization, Table 2; read-out: in vitro FP EC50
T1 construct: 15 nM full-length beta-catenin, 20 nM FITC labeled peptide in buffer
T1 sequence (P35222 1-781): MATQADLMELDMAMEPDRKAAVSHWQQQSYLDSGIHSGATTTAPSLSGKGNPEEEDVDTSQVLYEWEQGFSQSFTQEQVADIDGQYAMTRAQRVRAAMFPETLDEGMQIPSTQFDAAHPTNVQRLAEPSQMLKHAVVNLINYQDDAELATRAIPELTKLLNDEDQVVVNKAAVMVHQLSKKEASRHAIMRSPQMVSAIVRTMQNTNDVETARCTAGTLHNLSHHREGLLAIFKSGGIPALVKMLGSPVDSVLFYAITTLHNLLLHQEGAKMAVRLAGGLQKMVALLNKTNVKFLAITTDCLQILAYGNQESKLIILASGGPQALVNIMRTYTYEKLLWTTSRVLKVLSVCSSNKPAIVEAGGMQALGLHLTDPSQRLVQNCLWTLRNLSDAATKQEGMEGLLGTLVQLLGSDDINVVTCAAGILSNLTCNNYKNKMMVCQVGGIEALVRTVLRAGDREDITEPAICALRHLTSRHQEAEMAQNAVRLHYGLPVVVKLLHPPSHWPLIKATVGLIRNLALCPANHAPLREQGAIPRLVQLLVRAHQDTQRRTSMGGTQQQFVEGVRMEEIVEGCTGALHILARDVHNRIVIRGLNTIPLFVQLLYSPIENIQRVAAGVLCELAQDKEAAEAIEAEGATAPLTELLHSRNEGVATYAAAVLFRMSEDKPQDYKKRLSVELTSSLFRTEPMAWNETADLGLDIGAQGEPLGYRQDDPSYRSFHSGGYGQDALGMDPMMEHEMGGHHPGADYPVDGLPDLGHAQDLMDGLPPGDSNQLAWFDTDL
Procedure, shortened: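 Competition FP: 15 nM full-length β-catenin pre-incubated 5 min with 20 nM FITC-labelled stapled Axin-site peptide, then titrated peptide added (3-fold series from 5 μM) for 15 min in the dark. Buffer 50 mM Tris pH 8.0, 250 mM NaCl, 2% glycerol, 0.5 mM EDTA; duplicate reads.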

Molecule	EC50
CC[C@H](C)[C@@H]1NC(=O)[C@@](C)(NC(=O)[C@H](CCC(N)=O)NC(=O)[C@@H]2CCCN2C(C)=O)CCCCCC=CCOC(=O)N2CC(C(=O)N[C@@H](Cc3c[nH]cn3)C(=O)N[C@H](C(=O)N[C@@H](CCCNC(=N)N)C(=O)N[C@@H](CCCNC(=N)N)C(=O)N[C@H](C(=O)N[C@@H](Cc3c[nH]c4ccccc34)C(=O)N[C@@H](CCCNC(=N)N)C(N)=O)C(C)C)C(C)C)(C2)NC(=O)[C@H](CC(=O)O)NC(=O)[C@H](CC(C)C)NC1=O (single isomer, unassigned) [FP0738c, Ac-P-Q-S7-I-L-D-MA-H-V-R-R-V-W-R-NH2]	500 to 5000 nM
CC[C@H](C)[C@@H]1NC(=O)[C@]2(NC(=O)[C@H](CCC(N)=O)NC(=O)[C@@H]3CCCN3C(C)=O)CCN(C2)C(=O)OCC=CCCCC[C@@](C)(C(=O)N[C@@H](Cc2c[nH]cn2)C(=O)N[C@H](C(=O)N[C@@H](CCCNC(=N)N)C(=O)N[C@@H](CCCNC(=N)N)C(=O)N[C@H](C(=O)N[C@@H](Cc2c[nH]c3ccccc23)C(=O)N[C@@H](CCCNC(=N)N)C(N)=O)C(C)C)C(C)C)NC(=O)[C@H](CC(=O)O)NC(=O)[C@H](CC(C)C)NC1=O (single isomer, unassigned) [FP0752c, Ac-P-Q-MB-I-L-D-S6-H-V-R-R-V-W-R-NH2]	500 to 5000 nM
CC[C@H](C)[C@@H]1NC(=O)[C@H](Cc2c[nH]cn2)NC(=O)[C@H](C)NC(=O)[C@H](CC(=O)O)NC(=O)[C@H](CC(C)C)NC(=O)[C@H]([C@@H](C)CC)NC(=O)[C@](C)(NC(=O)[C@H](C)NC(C)=O)CCCCCCC=CCOC(=O)N2CC[C@@](C(=O)N[C@@H](CCCNC(=N)N)C(=O)N[C@H](C(=O)N[C@H](Cc3c[nH]c4ccccc34)C(N)=O)C(C)C)(C2)NC1=O [FP0630c, Ac-A-R8-I-L-D-A-H-I-MB-R-V-dW-NH2]	100 to 500 nM
CC[C@H](C)[C@@H]1NC(=O)[C@](C)(NC(=O)[C@H](CCC(N)=O)NC(=O)[C@@H]2CCCN2C(C)=O)CCCCCC=CCOC(=O)N2CC[C@](C(=O)N[C@@H](Cc3c[nH]cn3)C(=O)N[C@H](C(=O)N[C@@H](CCCNC(=N)N)C(=O)N[C@@H](CCCNC(=N)N)C(=O)N[C@H](C(=O)N[C@@H](Cc3c[nH]c4ccccc34)C(=O)N[C@@H](CCCNC(=N)N)C(N)=O)C(C)C)C(C)C)(C2)NC(=O)[C@H](CC(=O)O)NC(=O)[C@H](CC(C)C)NC1=O (single isomer, unassigned) [FP0768c, Ac-P-Q-R7-I-L-D-MC-H-V-R-R-V-W-R-NH2]	100 to 500 nM

target: T2, full-length beta-catenin (UniProt P35222 2-781, limits assumed); experiment: competition FP; NB = no binding detected; conditions: not given
T2 construct: mature; also called full-length ß-Catenin; β-catenin
T2 sequence (looked up): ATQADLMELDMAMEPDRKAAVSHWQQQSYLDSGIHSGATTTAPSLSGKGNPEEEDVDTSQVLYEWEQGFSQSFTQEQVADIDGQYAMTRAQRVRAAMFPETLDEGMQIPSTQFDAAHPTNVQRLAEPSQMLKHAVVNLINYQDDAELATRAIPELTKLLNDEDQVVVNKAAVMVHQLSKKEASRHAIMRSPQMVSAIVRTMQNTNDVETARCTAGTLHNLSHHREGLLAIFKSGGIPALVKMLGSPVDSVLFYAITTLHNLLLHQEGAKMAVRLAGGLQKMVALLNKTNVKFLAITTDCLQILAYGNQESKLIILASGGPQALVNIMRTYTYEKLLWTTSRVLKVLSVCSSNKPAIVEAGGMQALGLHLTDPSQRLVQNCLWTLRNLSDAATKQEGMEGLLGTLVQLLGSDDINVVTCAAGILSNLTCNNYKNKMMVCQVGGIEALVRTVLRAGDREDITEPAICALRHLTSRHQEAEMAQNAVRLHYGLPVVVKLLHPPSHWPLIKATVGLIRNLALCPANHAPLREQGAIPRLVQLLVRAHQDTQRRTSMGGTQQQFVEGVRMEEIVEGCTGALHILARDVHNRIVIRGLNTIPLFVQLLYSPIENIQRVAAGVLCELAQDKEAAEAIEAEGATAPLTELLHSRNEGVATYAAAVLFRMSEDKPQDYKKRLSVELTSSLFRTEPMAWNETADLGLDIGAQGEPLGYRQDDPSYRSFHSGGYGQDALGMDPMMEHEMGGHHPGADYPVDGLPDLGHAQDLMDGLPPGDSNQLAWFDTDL
Protocol: In some embodiments, a competition fluorescence polarization assay is used to assess binding of provided compounds to beta-catenin. In an exemplary procedure, solutions of provided compounds, e.g., provided stapled peptides, were prepared in a buffer (e.g., 50 mM Tris pH 8.0, 250 mM NaCl, 2% glycerol, 0.5 mM EDTA, 0.02% w/v sodium azide) using a 3-fold serial dilution from 5 µM. Probe solution (15 nM full-length ß-Catenin, 20 nM FITC labeled peptide in buffer) was prepared and incubated for a period of time, e.g., 5 minutes, and the a volume, e.g., 40 µL per well plated in suitable plate, e.g., a black polystyrene 384-well plate (Corning). Equal volume of the serial diluted peptide was added to the plate and incubated protected from light for 15 minutes prior to read. Reads were performed on a Spectramax M5 (Molecular Devices) in duplicate. Suitable probe was FITC-PEG1-PQ-S5-ILD-S5-HVRRVWR (SEQ ID NO: 1) (hydrocarbon staple formed by two S5 via olefin metathesis) and/or FITC-bA-PQ-S5-ILD-S5-HVRRVWR (SEQ ID NO: 3) (hydrocarbon staple formed by two S5 via olefin metathesis). […] Another peptide, FPO217c (Ac-AR_8ILDAHIM$B5$RVW (SEQ ID NO: 280), with N-terminal proline removed and valine replaced with isoleucine compared to FP0025c) was prepared.

Molecule	binding result
AXILDAHAXRVW (not fully specified; Ac-A-R8-I-L-D-A-H-A-MB-R-V-W-NH2; carbamate staple R8/MB) [FP0409c]	no binding
Ac-A[R8]ILDA[2Pal]I[MB(10)]FVW-NH2 (staple 2-9; not fully specified; printed as Ac-A-R8-I-L-D-A-2pyr-I-MB-F-V-W-NH2) [FP0555c Isomer 1]	no binding
Ac-A[R8]ILDA[2Pal]I[MB(10)]AVW-NH2 (staple 2-9; not fully specified; printed as Ac-A-R8-I-L-D-A-2pyr-I-MB-A-V-W-NH2) [FP0554c Isomer 1]	no binding
Ac-A[R8]ILDA[2Pal]I[MB(10)]IVW-NH2 (staple 2-9; not fully specified; printed as Ac-A-R8-I-L-D-A-2pyr-I-MB-I-V-W-NH2) [FP0556c Isomer 2]	no binding
Ac-A[R8]ILDA[2Pal]I[MB(10)]IVW-NH2 (staple 2-9; not fully specified; printed as Ac-A-R8-I-L-D-A-2pyr-I-MB-I-V-W-NH2) [FP0556c Isomer 1]	no binding
Ac-A[R8]ILDA[2Pal]I[MB(8)]SVW-NH2 (staple 2-9; not fully specified; printed as Ac-A-R8-I-L-D-A-2pyr-I-MB-S-V-W-NH2) [FP0560c Isomer 1]	no binding
Ac-A[R8]ILDA[2Pal]I[MB(9)]NVW-NH2 (staple 2-9; not fully specified; printed as Ac-A-R8-I-L-D-A-2pyr-I-MB-N-V-W-NH2) [FP0558c Isomer 2]	no binding
Ac-A[R8]ILDA[2Pal]I[MB(9)]LVW-NH2 (staple 2-9; not fully specified; printed as Ac-A-R8-I-L-D-A-2pyr-I-MB-L-V-W-NH2) [FP0557c Isomer 2]	no binding
Ac-A[R8]ILDAFI[MB(10)]RVW-NH2 (staple 2-9) [FP0540c]	no binding
Ac-A[R8]ILDA[2Pal]I[MB(10)]AVW-NH2 (staple 2-9; not fully specified; printed as Ac-A-R8-I-L-D-A-2pyr-I-MB-A-V-W-NH2) [FP0554c Isomer 2]	no binding
Ac-A[R8]ILDA[2Pal]I[MB(9)]NVW-NH2 (staple 2-9; not fully specified; printed as Ac-A-R8-I-L-D-A-2pyr-I-MB-N-V-W-NH2) [FP0558c Isomer 1]	no binding
Ac-A[R8]ILDA[2Pal]I[MB(8)]QVW-NH2 (staple 2-9; not fully specified; printed as Ac-A-R8-I-L-D-A-2pyr-I-MB-Q-V-W-NH2) [FP0559c Isomer 2]	no binding
Ac-A[R8]ILDA[2Pal]I[MB(9)]QVW-NH2 (staple 2-9; not fully specified; printed as Ac-A-R8-I-L-D-A-2pyr-I-MB-Q-V-W-NH2) [FP0559c Isomer 1]	no binding
Ac-A[R8]ILDA[2Pal]I[MB(9)]LVW-NH2 (staple 2-9; not fully specified; printed as Ac-A-R8-I-L-D-A-2pyr-I-MB-L-V-W-NH2) [FP0557c Isomer 1]	no binding
Ac-A[R8]ILDA[2Pal]I[MB(10)]FVW-NH2 (staple 2-9; not fully specified; printed as Ac-A-R8-I-L-D-A-2pyr-I-MB-F-V-W-NH2) [FP0555c Isomer 2]	no binding
